Results: the nanobody polyreactivity screen of Harvey et al. (2022)

Assay: yeast display, Sf9 membrane polyspecificity reagent, FACS + sequencing; frameworks hold sequencing errors
Outline: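 After 36–48 hours of galactose induction, yeast (Saccharomyces cerevisiae BJ5465) displaying a synthetic nanobody library were stained at 4 °C for 1 hour with 10% biotinylated, detergent-solubilized Sf9 membrane reagent. Streptavidin microbeads enriched the stained cells before FACS sorting into low and high (top ~1%) gates on anti-HA and streptavidin fluorescence. Each clone's polyreactivity label reflects its gate of origin.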

Sequence | polyreactivity (PSR sort gate)
QVQLVESGGGLVQAGGSLRLSCAASGGIFEYYAMGWYRQAPGKERELVAAINTGGNTYYADSVKGRFTISRDNAKNTVYLQMNSLKPEDTAVYYCATDPIWYGGYLSGTDYDYWGQGTQVTVSS | low polyreactivity
QVHLVESGGGLVQAGGSLRLSFAASGRTFLRYDMGCYIQAPGKERELVAADSVKGRFTISRDNAKNTVYLQMNSLKAEDPAVYYCAADSTEYTGDASYIGYDYWGQGTHVTVSS | high polyreactivity
QVQLVESGGGLVQAGGSLRLSCAASGLTFSIYAMGWYRQAPGKERELVASITSSGGSTYYADSVKGRFTISRDNAKNTVYLQMNSLKPEDTAVYYCATGRSRDYDYWGQGTQVTVSS | high polyreactivity
QVQLVESGGGLVQAGGSLRLSCAASGSIFTNYAMGWYRQAPGKERELVAAISQSGDTTYNADSVKGRFTISRDNAKNTVYLQMNSLKPEDTAVFFCAAQYYRWFYYWGQGTQVTVSS | high polyreactivity
QVQLVESGGGLVQAGGSLRLSCAASGRIFGSNPMGWYRQAPGKERELVAAISSGGSTSYADSVKGRFTISRDNAKKTVYLQMNSLKPEDTAVYYCAADRFAFYGRYRGPYYYWGQGTQVTVSS | high polyreactivity
QVQHEESGGGLVQAGGSLRLSCAASGRIFFGKVMGGYRQAPGTERELVAVITSGGNTNYADSVKGRFTISRDNAKNTVYLQMHSLKPEDTAVYYCATAVVAGVWGYDYWGQGTQVTVSS | low polyreactivity
QVQLVESGGGLVQAGGSLRLSCAASGITFQKNAMGWDRPAPGKEMEWVAGITWRGSTYYADSVKGRFTISRDNAKNTVYLQMNSLKPEETAVYYCAADPFYWYRSVRGEYWGQGTQVTVSS | low polyreactivity
QVQLVESGGGLVQAGGSLRLSCAASGRIFAAYAMGWYRQAPGKERELVAAITWRGGSTYYADSVKGRFTISRDNAKNTVYLQMNSLKPEDTAVYYCNARVYYYPGYDYWGQGTQVTVSS | low polyreactivity
QVQLVESGGVLDQGGGSLRLSCASSGITYRRYAMGWYRQAPGKERELVAANTYGGGSTYYADSVKGRFTISRDNAKNTVYLQMNSLKPADTAVFYCYARYSGGFGGGSKPDYYWGQGTQVTVAS | high polyreactivity
QVQLVESGGGLVQAGGSLRLSCADSGSIFDDYTMGWYRQAPGKERELVAVITTGGTTYYADSVKGRFTISRDNAKNTVYLQMNSLKPEDTAVYYCAAKEANRYRRYYWGQGTQVTVSS | high polyreactivity
QVQLVESGGGLVQAGGSLRLSCAASGRTFRFYAMGWYRQAPGKERELVAAITYRGGTYYADSVKGRFTISRDNAKNTVYLQMNSLKPEDTAVYYCAVKPSGWSGMDYWGQGTQVTVSS | high polyreactivity
QVQLVESGGGLVQAGGSLRLSCAASGSILQDYTMGWYRQAPGKERELVAAITWNGGSTYYADSVKGRFTISRDNEKNTVYLHMTSLKPEHTAVYYCAAYCRVVPSFYYWGQGTQVTVSS | low polyreactivity
QVQLVESGGGLVQAGGSLRLSCSASGRTFRSNAMGWYRQAPGKEREFVAAIRSRGGSTYYADSVKGRFTISRDNAKNSVYLQMNSLKPEDTAVYYCADKHGSTSHDSWGQGTQVSVSS | high polyreactivity
QVQLVESGGGLVQARGSLRLSCAGSGSTLPSYAMGWYRQAPGKERELVAAISSSGGRTYYADSVKGRFTISRDNAKNTVYLLMNSLKPEDTAVYYCAALSVANYHGTDSGYWGQGTQVTVSS | high polyreactivity
PVQLVESGGVLVQAGGSLRLSCAASGFTFWLYAMGWYRQAPGNEREFVAAISPSGGSTYADSVKGRFTLSRDNAKNTVYLPMNRLKPEDTAVYYCNDGYLLYYDYHLFYWGQGTQLTVSS | low polyreactivity
QVQLVESGGGLVQAGGSLRLSCAASGRTFEYYAMGWYRQAPGKERELVASITSGGITNYADSVKGRFTISRDNAKNTVYLQMNSLKPEDTAVYYCNKRPWTRFDWGQGTQVTVSS | low polyreactivity
QVQLVESGGGLVQAGGSLRLSCAASGFTFRRNAMGWYRQAPGKEMELVASISSRGGITYYADSVKGRFTISRDNAKNTVYLQMNSLNPEDTAVYYCAVRFSRYTSNWRQSYDYWGQGTQVTVSS | low polyreactivity
QVQLVESGGGLVQAGGSLRLSCAASGFILGGYAMGWYRQAPGKERELVAAISWSSGSTYYADSVKGRFTISRDNAKNTVYLQMNSLKPEDTAVYYCAAVGAYDYWGQGTQVSVSS | low polyreactivity
QVQLVESVGGLVQAGGSLRLSCAASGSIFIANAIGWYRQAPGKERELVAAISWSGGRTYYADSVKGRFTISRDNAKNTVYLQMNSLKPEDTAVYYCAAVYGAYDSGRFLSFGNFDYWGQGTQVTVSS | high polyreactivity
QVQLVESGGGLVQAGGSLRLSCAASGSIFGPYAMGWYRQAPGKERELVAVISKRGGSTYYADSVKGRFTISRDNAKNTVYLQMNSLKPEDTAVYYCAADYDWDPYRIYYLASYDYWGQGTQVTVSS | high polyreactivity
QVQLVESGGGLVQAGGSLRLSCAASGFIFTGNAMGWYRQAPGKERELVAAITGRGSTYYADSVKGRFTISRDNGKNSVYLQMNSLKPEDTAVYYCAAKRWWQYYWGQGTQVTVSS | high polyreactivity

Sequence | polyreactivity (PSR sort gate)
QVQLVESGGGLVQAGGSLRLSCAASGITFFENAMGWYRQAPGKERELVASISSSGGSTYYADSVKGRFTISRDNAKNTVYLQMNSLKPEDTAVYYCAARYYSQKSYIGFRPGYEYWGQGTQVTVSS | low polyreactivity
QVQLVESGGRLVQAGGSLRLSCAASGSIFLAYAMGWYRQAPGKEREFVAAISFSDGSTYYADSVKGRFTISRDNAKNTVYLQMNSLKPEDTAVYYCNKGASPDDYDYWGQGTQVTVSS | low polyreactivity
QVQLVESGGGVVQAGGSLRLSCAASGSIFNRYAMGWYRQAPGKERELVAAISTHTGTTYYADSVKGRFTISRDNAKNTVYLQMNSLKPEDTAVYYCNAATYGGRYYYWGQGTQVTVSS | high polyreactivity
QVQLEESGGGLVQAGGSLRLSCAASGFIFDYYAMGWYRQAPGKERELVAAISSSGGSTYADSVKGRFTISRDNAKNTVYLQMNSLKPEDTAVYYCAADWYKRPPYDYWGQGTQVTVSS | low polyreactivity
QVQLVESGGGLVQAGGSLRLSCAASGRIFRYYAMGWYRQATGKERELVASISSGGSTNYADSVKGRCTISRDNAKNTVYLQMNSLKPEDTAVYYCNAVLCFRAVYEYDYWGQGTQVTVSS | high polyreactivity
QVQLVESGGGLVQAGGSLRLIFAASGSIFNRYTMGWYRQAPGKERELVADISKSGTRTYYADSVKGRFTISRDNAKNTVYLQMNSLKPEDTAVYYCAKSSVAVYQTRYDYWGQGTQVTVSS | high polyreactivity
QVQLVESGGGLVQAGGSLRLSCAASGRILSSYAMGWYRKAPGKERELVAVISSGGNTYYADSVKGRFTISRDNAKNTVYLQMNSLKPEDTAVYYCAAVRHRQTYTKYNYWGQGTKVTVSS | high polyreactivity
QVQLVESGGGLVQAGGSLRLSCAASGLTFYAYAMGWYRQAPGKERELVAAISSRGGRTYYADSVKGRFTISRDNAKNTVYLQMNRLKPEDTAVYYCAARIYRYDTTVVPRYDYWGQGTQVTVSS | high polyreactivity
QVQLVESGGGLVQAGGSLRLSCAASGSTFLRYAMGWYRQAPGKERELVATISRSDDGTYYADSVKGRFTISRDNAKNTVYLQMNSLKPEDTAVYYCAARSWYLYYYWGQGTQVTVSS | low polyreactivity
QVQLVESGGGLVQAGGSLRLSCAASGSIFPFYAMGWYRQAPGKERELVAAITRSDGSTYYADSVKGRFTISRDNAKNTVYLQMNSLKPEDTAVYYCADYGYWGQGTQVTVSS | low polyreactivity
QVQLVDSGGGLVQAGGSLRLSCAASGNIFTSYARGWYRQAPGKERELVAAISSGGRTSYADSVKGRFTISRDNAMNTVFLQMNSLKPDYTAVYYCAAYYRRWPREYYYWGQGTQVSVSS | high polyreactivity
QVQLVESGGGIVQAGGSLRLSCAGSGSIVSGYTMGWYRQEPGKERELVAAITRSGGRTYYADSVKGRFTISRDYAKNTVYLQMNSLKPEDTSVYYCAAVDRRGANYNYWGQGTQVTVSS | high polyreactivity
QVQLVESGGGLVQAGGSLRLSCSASGIIYKSYAMGWYRQAPGKERELVAAISGGGDTYYADSVKGRFTISRDNAKNTVYLQMNSLKPEDTAVYYCNTDGSQGTIIAIFVKYDYWGQGTQVTVSS | low polyreactivity
QVQLVESGGGLVQAGGSLRLSCAASGSIILRYAMGWYRQATGKERELVAAISNRGGSTYYADSVKGRFTISRDNAKNTVYLQMNSLKPEDTAVYYCAVRSTNERSAGKRRYYYWGQGTQVTVSS | high polyreactivity
QVQLVESGGGLVQAGGSLRLSCAASGRTFTIYARGWYRQAPGKERELVAAITSGGSTYYADSVKGRFTISRDNAKNTVYLQMNSLKPEDTAVYYCDRGYAVSLVSRYDYWGQGTQVTVSS | low polyreactivity
QVQLVESGGGLVQAGGSLRLSCAASGSIFYQNAMGWYRQAPGKEREFVAAIRSSGSSTYYADSVKGRFTISRDNAKNTVYVQMNCLKPEDTAVYYCAADNPGGYRGKVDYWGQGTQVTVSS | high polyreactivity
QLQLVESGRGLVQAGGSLRLSCAASGSIFYSNAKGWYRQATGKERELVATITWSGGRTYYADSVKGRFTISRDNGKNSVYLQMNRLKPEDTAVDYCAVVDRHQPYGRQLDYWGQGTQVTVSS | low polyreactivity
QVQLVESGGGLVQAGGSLRLSCAASGSNFSSYAMGWYREAPGKERELVAAIDGSGGSTYADSVKGRFTISRDNAKNTVYLQMNSLKPEDTAVYYCAVDSFLVYSAVRPYDYWGQGTQVTVSS | low polyreactivity
QVQLVESGGGLVQAGGSLRLSCAASGRIFQYDVMGWYRQAPGKERELVARITYNGGGTYYADSVKGRFTISRDTAKNTVYLQMNSLKPEDTAVYYCNARYPWRDWEDDYWGQGTQVTVSS | low polyreactivity
QVQLVESGGGLVQAGGSLRLSCAASGRILASYAMGWYRQAPGKERELVAAISRSGGSTYYADSVKGRFTISRDNAKNTVYLQMNSLKPEDTAVYYCAAKYPQKTPVNSYGNSFYYWGQGTQVTVSS | high polyreactivity
